Experimental data reported in patent US20100035363A1 (TIBOTEC PHARMACEUTICALS, published 2010).

Tests used:
[1] = molecular target: T1, biotin-labeled RSV-IQN57 (Respiratory Syncytial Virus (F1 part), biotin label (position not stated in the example); captured on streptavidin-allophycocyanin in the assay); test: time-resolved FRET competition, IQN57-APC/C45-Eu assay; competitor C45-Eu
T1 construct: Synthetic peptide; In the assay it was pre-mixed with streptavidin-APC (final 100 nM IQN57-biotin, 10 nM streptavidin-APC); also called IQN57-biotin; IQN57-APC
T1 peptide: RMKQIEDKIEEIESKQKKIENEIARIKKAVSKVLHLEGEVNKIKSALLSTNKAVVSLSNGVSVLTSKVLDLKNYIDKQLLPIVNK

[2] = molecular target: T2, biotin-labeled RSV-IQN51 (Respiratory Syncytial Virus (F1 part), biotin label (position not stated in the example); captured on streptavidin-allophycocyanin in the assay); test: time-resolved FRET competition, IQN51-APC/C39-Eu assay; competitor C39-Eu
T2 construct: Synthetic peptide; In the assay it was pre-mixed with streptavidin-APC (final 100 nM IQN51-biotin, 10 nM streptavidin-APC); also called IQN51-biotin; IQN51-APC

NFYDPLVFPSDEFDASISQVNEKINQSLAFIRKSDELLHNVNAGK [RSV-C45] was tested, and the IC50 [1] was 74 nM and the IC50 [2] was 76 nM.

For VFPSDEFDASISQVNEKINQSLAFIRKSDELLHNVNAGK [RSV-C39], the IC50 [1] was 64 nM and the IC50 [2] was 76 nM.
